Results on 1 substance are retold here after paper PMC8705320.

A word on the Ki: it is a dissociation constant, usually derived from enzyme kinetics or from competition with a known ligand. A lower Ki goes with higher affinity.

For experiment [1], the target named is human cathepsin L (human) (UniProt P07711). Put plainly: enzyme inhibition kinetics (Dixon plot); cathepsin L 0.4 nM; Cystatin-Hv 8, 16 and 24 nM; Z-FR-AMC substrate at 1 Km and 2 Km; 50 mM sodium phosphate, 200 mM NaCl, 5 mM EDTA, pH 5.5, 6 mM DTT preactivation; 37 °C; fluorescence read each minute for 15 min.
The target of the next experiment is papain (UniProt P00784).
UniProt P00784, sequence (P00784 134-345): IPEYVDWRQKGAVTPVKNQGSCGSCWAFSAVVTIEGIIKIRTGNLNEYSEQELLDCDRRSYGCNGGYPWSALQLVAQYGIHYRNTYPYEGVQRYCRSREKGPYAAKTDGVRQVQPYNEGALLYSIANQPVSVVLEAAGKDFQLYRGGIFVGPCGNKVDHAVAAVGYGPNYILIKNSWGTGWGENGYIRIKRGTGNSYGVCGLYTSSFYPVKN

In turn, “Cystatin-Hv (recombinant cystatin of the leech Haementeria vizottoi) (natural protein)” gave a Ki in experiment [1] of 7.9 nM. The same substance returned an IC50 of inhibition of papain activity (papain 21.4 nmol/L or 50 ng, 5 µM Z-FR-MCA substrate; 1, 5, 10 and 15 µg of pool 2 from ion-exchange chromatography) with papain of 120 nM.
